Reference: the DeepSol protein solubility set

Assay: soluble on expression in E. coli; label from the status in PepcDB or PDB records

Row | Sequence | soluble on expression in E. coli
1 | MGSDKIHHHHHHMKIMVSEQFQCFMASLGVDLNSLLEAAGINKVVWQEQLMLSDVEYWQLMNEFDNQLTDEMILSLGNITNINTFMPSFFAALAAKNGEQAIARMATYKSLAGPVHLEIVTKPDIVNIHILGNSLGVELPRFTIMTEQLLLISLLRVGTGKLIKPISVGSKYPYGDQIDAVMGIRPQQLADNCIQFQVTDLQRAFISANNSMWAFLQPGLDQQKLAIEHNQSLLATVQALLLKKIPSGSFSIDEIATSLNLSKRTLQRHLSTLSTTFNDEVQIARRTLVVPLMKDQSLNLIEISYLLGYSDPESFSRAFKKWFHQSPSVYRQQSLGMFKN | not soluble
2 | MGYCIIIPAYNAARTLPAVVREVLGLGMPCLVVDDGSTDGTSATVEGLGVHLLRHDGNRGKGAALRTGFEWALAHGYSGVVTLDADGQHDPTAIPLLAATARERNVDILIASRDTQFREMAGLRSVWNRFGVWCMRKRTGFTITDSQSGFRWYSARLLKGVSLEASGYHLEMEILMKAWRGGFAIDSLPVAARVADGRATSHFRPVRDTWNICMTFLRHMLEHHHHHH | soluble
3 | MSLEAAPAGSGPLRRTFLVPEIKSLDQYDFSRAKAAASLAWVLRAAFGGAEHVPPELWEPFYTDQYAQEHVKPPVTRLLLSAELYCRAWRQALPQLEPSPSPSALLALLARRGTVPSLPEHPVREADLKHQPILMGAHLAVIDALMVAFSFEWTKTLPGPLALSSLEHKLLFWVDTTVRRLQEKTEQEAAQRASPAAPLDGASPAQPSIRYRKDRAIARRAPCFPNVTTLQDLASGAALAATIHCYCPQLLRLEEVCLKDPMSVADSLYNLQLVQDFCASHLPRGCPLSLEDLLYVPPPLKVNLVVLLAEMYMCFEVLKPDFVQAKDLPDGHAVSPRNTETVPSQNNSGSSSSPSRLPGSRERDWENGSNASSPASVPEYTGPRLYKEPSAKSNKFIIHNALSHCCLAGKVNEPQKNRILEEIEKSKANHFLILFRDSSCQFRALYTLSGETEELSRLAGYGPRTVTPAMVEGIYKYNSDRKRFTQIPAKTMSMSVDAFTIQGHLWQSKKPTTPKKGGGTPKEGHHHHHH | soluble
4 | QTNNDEELQDMSDPLAVYTQAGFGITDKGANIKIGQTYQSSQPGTMAMNIIEMKGIGGELFGIRDNDDPMYANVDDSIDSFRLRNFQVEVAKGLGRQLDVNYDVDNDKLDASYSFIQGLPK | not soluble
5 | MSLLKINSQLFAIEDTLDDLAAAFLNLEVVRTYKAAQKAFLADKHLQKEISNFQHYNEDYNDQKTFIKYRPEVKQLRRKIFEKKRQLDLNEKVIALRRAEVDLQEVLAKIAQKIAESVSSDVFVDTGLPLAPHKPPHKKGYGNNIKEREGHHHHHH | soluble
6 | MSLNIHIHSMTGFANAAAECGSKRINLDIRAVNHRFLDIQIRMPDDLRYLESGIREKISSHIARGKVECKIQIQDTENSRQSLELNSDLVNQLAEINKNLRKHHDLAKLGVADILRFPGVLASQRENTEELAKSITELTEKALKDFTAARRREGKKLGEHLLQRLESMEEIIDALSELFPTLLETHKEKIRARLVEAVGDINNDRLQQEFALFIQKSDIDEEFSRLRTHIAEVRRIVTEHKGSSGKRLDFLMQELNREANTLGSKSIAAECTQASVELKVLIEQMREQVQNIEEGHHHHHH | soluble
7 | MGSDKIHHHHHHMGFWHSMSWKTEGIRVTAPVQWRQYDGMVSVLWEAESQAGASGYYLADDPRIMFFFNDVSSSVRISNQDNDLARNSRPMARAVYVPAGVPLWTGSRKTHSFSHLNLHLHKDRVLRFLAPSVGNSAAQTALRCPVELQNVAAIDALAKLLADEIKSPTKHAVYAESLIGSIIAGLLDIPTEREERAGGRLTQAQINKLVSHIDALGDYRMSVADMAAVVGLSESWFASVFKQTMGITPLQWQLAKRVELTKKLLGESDLPVASIAAQLGFADQAHLTKVFRQIVGETPAAWRRMRQFRQS | not soluble
8 | MRNIGIIINKEKDKENKILNLVILKVKEYLNPDEIKVIDQFYKGDYKDLMSLDLLIVLGGDGTLLGVARKFSTVIDTPILGINIGNLGFLVTAEISELDEALYRIKVGDYKVEERMLLSCTIEGVTCSEERALNDIVVARGTLSRMAQYEVFINDELYATFKGDGVIISTPVGSTAYSFSAGGPLIMPDLQIVSIVPICPHTPNSRPMIIDGNNKVRVKPLINESDVFVTIDGQKALKLEKHNEVLIKKAKEFFRIISFDNKSYFKVLRKKLFKIELEHHHHHH | not soluble
9 | SLVTSLKGLWTLRAFGRQPYFETSGGGSGGGSGGGSGGGSGGGEYNLTTTEVVMENVTAFWEEGGTPVLKDINFKIERGQLLAVAGSTGAGKTSLLMMIMGELEPSEGKIKHSGRISFCSQFSWIMPGTIKENIIFGVSYDEYRYRSVIKACQLEEDISKFAEKDNIVLGEGGITLSGGQRARISLARAVYKDADLYLLDSPFGYLDVLTEKEIFESCVCKLMANKTRILVTSKMEHLKKADKILILHEGSSYFYGTFSELQNLQPDFSSKLMG | soluble
10 | MSLTILAIDTSNYTLGIALLREDTVIAEYITYLKKNHSVRAMPAVHSLLNDCDMAPQDLSKIVVAKGPGSYTGVRIGVTLAKTLAWSLDIPISAVSSLETLAANGRHFDGLISPIFDARRGQVYTGLYQYKNGLLEQVVPDQNVMLADWLEMLKEKDRPVLFLGHDTSLHKQMIEDVLGTKGFIGTAAQHNPRPSELAFLGKEKEAADVHGLVPDYLRLAEAEAKWIESQKEGHHHHHH | soluble
11 | MGSDKIHHHHHHESSKSGYQTTGENNSSDYQGIIEDGEYKTSKSRGVGISQNSDNLLNLKSFEAGLTTISKDHFSTKSYIFQEGQYLNKATIQDWLGRKSSSNPEGLNPSDNGKKEANKRNPIYVQQIEEQDYMKQNNGKLELAGMTIGIGMNQKDYYQKEQYGATYSTTISKEKRIEEGKIAAKKVLARVRQKVGNNVPIVIAMFAQAPNDSLVGGYFYSYTVSKSGTDIGSWTETNIKSYVLPATEDNKLPNDNDSTSFDNFQKEVKNFFPNISNVTGQGQYKDKTLQGLHITITTQFYSETEITSFTQYVAQAAKSYLPSGIPVDIKINGSDGETQSFVSTTGGNGGYYTHVFGSY | not soluble
12 | MVCLQRICYEKIFLKKKIIATGTIWMSNMQQINNASVRPVSAYNTKHLQIPAIALLQSSPLPEQAIRTFSRALLTPTNHLFVNGRYIRTGLISGFDSRKLSFFQRIYLFLKSRFFTENKSVKISAVWAHDSWSNNYFHWFNDTLPRLFLLSKQIEDSVAVLPVELSKITFIVESLELLKIEHQWIDQKKSHRFESLSVLHTATLQPDINPLLQKQMRDAVFSAMKIDPQERPFRKIYISRAHARYRKIINEQELLPVLKKYGYDIIYPETYSFKEQVKLFAESNALISIHGAGHTNCMFMKQDAKVMEIRNTEWESQPLCFWGLANIFELKWEYITATRVSEVSNFNDVFIAPHIFEESLRTFENIKLEHHHHHH | not soluble
13 | GPGSMRALTFRSSLCAGRTAVGAMCFGRLWASSTSATEGSEKQNVTEDSETVSVAPVSPEAYAKLEKELSDAKERIAELKKEVLYRAADAENARRIGSEDVTKAKAYGITSFGKDMLDVVDTLERGLEAITKLPQAEVEGHKTLSSIHTGIKLSLKLLLNNLAKHGIEKLDVAVGAKFDPNFHDALLKVPPTAEAPPGHISTVLKTGYKIQDRVLRASQVGVASDD | not soluble
14 | SPRIAEKMLRKRHGQAAFAAYVEKREQTRAAARAYDQRALQGDLEIIYNFGQDLIDEHAIEVSAEQVTVPGFSQPLVYKKDARFSDMLD | not soluble
15 | SSSSSSVPAYLGDEDLTQETRALISSLPKEKGWLVSEIYEFQGLWHTQAILQGILICQKRFEAKDSDIILVTNPKSGTTWLKALVFALLNRHKFPVSSSGNHPLLVTNPHLLVPFLEGVYYESPDFDFSSLPSPRLMNTHISHLSLPESVKSSSCKIVYCCRNPKDMFVSLWHFGKKLAPEETADYPIEKAVEAFCEGKFIGGPFWDHILEYWYASRENPNKVLFVTYEELKKQTEVEMKRIAEFLECGFIEEEEVREIVKLCSFESLSNLEVNKEGKLPNGIETKTFFRKGEIGGWRDTLSESLAEEIDRTIEEKFKGSGLKFSS | soluble
